This passage reports stoichiometry N results from paper PMC5773207.

The assay addresses Nogo-B receptor construct NgBR(79–293) (human) (UniProt Q96E22). Nature of the assay: SEC; size exclusion (Superdex 200 10/300 GL) in-line with synchrotron SAXS; 20 mg/mL NgBR(79-293), 20 mM HEPES pH 7.5, 150 mM NaCl, 5% glycerol, 1 mM TCEP, 25°C. In general terms: SEC sorts molecules by how far they enter the pores of the column.

By stoichiometry N is commonly meant a count of units in the complex or per binding partner.

Where “and” joins values, the source holds several entries; their conditions need not be identical. Identical values can stand only once.

Consider “Nogo-B receptor construct NgBR(79–293) (from UniProt Q96E22 79-293) (domain or fragment)”, for which the stoichiometry N is 2 and 4.
